Experimental data reported in US20130273035.

Target: Aβ1-42 (UniProt P05067)
Sequence (P05067 whole entry, looked up, tested part not stated): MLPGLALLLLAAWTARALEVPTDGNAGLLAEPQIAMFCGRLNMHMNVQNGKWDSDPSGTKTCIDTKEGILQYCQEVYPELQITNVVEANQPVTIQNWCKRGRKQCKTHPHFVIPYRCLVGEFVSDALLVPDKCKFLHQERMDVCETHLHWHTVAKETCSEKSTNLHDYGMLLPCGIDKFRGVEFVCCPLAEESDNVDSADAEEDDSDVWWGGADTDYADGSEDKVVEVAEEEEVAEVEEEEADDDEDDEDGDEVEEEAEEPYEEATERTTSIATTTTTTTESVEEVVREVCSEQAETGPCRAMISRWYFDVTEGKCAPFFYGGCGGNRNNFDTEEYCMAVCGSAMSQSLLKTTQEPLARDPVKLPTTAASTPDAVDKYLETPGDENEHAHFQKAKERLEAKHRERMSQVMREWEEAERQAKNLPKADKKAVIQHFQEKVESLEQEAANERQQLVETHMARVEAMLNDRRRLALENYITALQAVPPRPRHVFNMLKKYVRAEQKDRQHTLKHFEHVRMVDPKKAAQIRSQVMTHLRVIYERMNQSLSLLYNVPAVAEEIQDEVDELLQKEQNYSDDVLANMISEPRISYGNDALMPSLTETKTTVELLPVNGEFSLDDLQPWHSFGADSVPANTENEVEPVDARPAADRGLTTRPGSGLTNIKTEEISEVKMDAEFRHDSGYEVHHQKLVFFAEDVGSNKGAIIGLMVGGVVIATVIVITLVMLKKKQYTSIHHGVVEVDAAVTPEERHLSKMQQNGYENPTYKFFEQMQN

Which “proteolytic products analyzed with SELDI-TOF mass spectrometry” value does the source give for Cathepsin L here?
The value was “Incubating Aβ1-42 with CatL resulted in the dose-dependent generation of Aβ6-42 through proteolytic cleavage”.
